We go through one substance from paper PMC8084935.

As usually defined, the Kd is the free concentration of one partner at which half of the binding sites on the other are occupied at equilibrium, for simple one-to-one binding.

For the test, the target named is FITC-labeled McrA peptide (GG-…) (Methanothermobacter sp. CaT2). The test can be described thus: fluorescence polarisation. For orientation: Fluorescence polarisation rises when a labelled molecule tumbles more slowly, as on binding a larger partner.

“MtYcaO (YcaO from Methanothermobacter sp. CaT2), MBP-His tag cut in the assay mixture (enzyme)” returned a Kd of 7 µM.
